2 substances from US20030118551A1 can be followed below.

The target of test [1] is collagen (collagen-coated microtiter wells and culture plates; collagen matrices). Description: about 1 µg protein on collagen-coated microtiter plates, washes of rising stringency, immunodetection with DAB.
Test [2] shares this target. Description: cell-based or functional assay.

In test [1], “purified, renatured SU-ECB-CEE+ chimeric envelope protein (His×6 tag, von Willebrand Factor derived collagen binding domain, mature SU region of MoMuLV env gp70, residues 34 to 474) (from UniProt P03385 52-474)” had a urea needed to release the collagen-bound protein of 3 M. On to “chimeric ECB-CEE+ Moloney Murine Leukemia Virus gp70 envelope protein with collagen binding domain, on retroviral vector particles (from UniProt P03385 52-469)”, for which, in test [2], the transduction efficiency of NIH 3T3 cells overlaid upon the virus-bound collagen was in the range of 20 to 40%.
